Here are results for 4 molecules from patent WO2018134389A1 (dated 2018).

Experiment [1] deals with T1, Recombinant HIV-1 IIIB gp120 derived from CHO cells (ImmunoDx) (HIV-1 IIIB, UniProt P04578 33-511).
T1 construct: also called HIV-1 IIIB gpl20; HIV-1 gp120
As to the kind of experiment: lectin-functionalized plate, labelled glycoprotein, fluorescence read-out.

Experiment [2] addresses T1, Recombinant HIV-1 IIIB gp120 derived …. As to the kind of experiment: flow cytometry on HEK293T point-mutant transfectants. (A flow cytometer gives signals particle by particle.)

B1: Sambucus Nigra Agglutinin (other)
chain: VTPPVYPSVSFNLTGADTYEPFLRALQEKVILGNHTAFDLPVLNPESQVSDSNRFVLVPLTNPSGDTVTLAIDVVNLYVVAFSSNGKSYFFSGSTAVQRDNLFVDTTQEELNFTGNYTSLERQVGFGRVYIPLGPKSLDQAISSLRTYTLTAGDTKPLARGLLVVIQMVSEAARFRYIELRIRTSITDASEFTPDLLMLSMENNWSSMSSEIQQAQPGGIFAGVVQLRDERNNSIEVTNFRRLFELTYIAVLLYGCAPVTSSSYSNNAIDAQIIKMPVFRGGEYEKVCSVVEVTRRISGWDGLCVDVRYGHYIDGNPVQLRPCGNECNQLWTFRTDGTIRWLGKCLTASSSVMIYDCNTVPPEATKWVVSIDGTITNPHSGLVLTAPQAAEGTALSLENNIHAARQGWTVGDVEPLVTFIVGYKQMCLRENGENNFVWLEDCVLNRVQQEWALYGDGTIRVNSNRSLCVTSEDHEPSDLIVILKCEGSGNQRWVFNTNGTISNPNAKLLMDVAQRDVSLRKIILYRPTGNPNQQWITTTHPA
notes: also called SNA
Regarding B1, the binding result in experiment [1] was “no binding (tested: 10, 2 and 0.4 μg/ml)”.

B2: DC-SIGN CRD single point mutant S360A, stably expressed on HEK293T cells (receptor)
chain: MSDSKEPRLQQLGLLEEEQLRGLGFRQTRGYKSLAGCLGHGPLVLQLLSFTLLAGLLVQVSKVPSSISQEQSRQDAIYQNLTQLKAAVGELSEKSKLQEIYQELTQLKAAVGELPEKSKLQEIYQELTRLKAAVGELPEKSKLQEIYQELTWLKAAVGELPEKSKMQEIYQELTRLKAAVGELPEKSKQQEIYQELTRLKAAVGELPEKSKQQEIYQELTRLKAAVGELPEKSKQQEIYQELTQLKAAVERLCHPCPWEWTFFQGNCYFMSNSQRNWHDSITACKEVGAQLVVIKSAEEQNFLQLQSSRSNRFTWMGLSDLNQEGTWQWVDGSPLLPSFKQYWNRGEPNNVGEEDCAEFAGNGWNDDKCNLAKFWICKKSAASCSRDEEQFLSPAPATPNPPPA
notes: whole, on cells
In the case of B2, in experiment [2], the binding result is listed as “binds”.

B3: DC-SIGN CRD single point mutant D367A, stably expressed on HEK293T cells (receptor)
chain: MSDSKEPRLQQLGLLEEEQLRGLGFRQTRGYKSLAGCLGHGPLVLQLLSFTLLAGLLVQVSKVPSSISQEQSRQDAIYQNLTQLKAAVGELSEKSKLQEIYQELTQLKAAVGELPEKSKLQEIYQELTRLKAAVGELPEKSKLQEIYQELTWLKAAVGELPEKSKMQEIYQELTRLKAAVGELPEKSKQQEIYQELTRLKAAVGELPEKSKQQEIYQELTRLKAAVGELPEKSKQQEIYQELTQLKAAVERLCHPCPWEWTFFQGNCYFMSNSQRNWHDSITACKEVGAQLVVIKSAEEQNFLQLQSSRSNRFTWMGLSDLNQEGTWQWVDGSPLLPSFKQYWNRGEPNNVGEEDCAEFSGNGWNDAKCNLAKFWICKKSAASCSRDEEQFLSPAPATPNPPPA
notes: whole, on cells
Turning to B3, the binding result in experiment [2] is “binds”.

B4: DC-SIGN CRD single point mutant V351A, stably expressed on HEK293T cells (receptor)
chain: MSDSKEPRLQQLGLLEEEQLRGLGFRQTRGYKSLAGCLGHGPLVLQLLSFTLLAGLLVQVSKVPSSISQEQSRQDAIYQNLTQLKAAVGELSEKSKLQEIYQELTQLKAAVGELPEKSKLQEIYQELTRLKAAVGELPEKSKLQEIYQELTWLKAAVGELPEKSKMQEIYQELTRLKAAVGELPEKSKQQEIYQELTRLKAAVGELPEKSKQQEIYQELTRLKAAVGELPEKSKQQEIYQELTQLKAAVERLCHPCPWEWTFFQGNCYFMSNSQRNWHDSITACKEVGAQLVVIKSAEEQNFLQLQSSRSNRFTWMGLSDLNQEGTWQWVDGSPLLPSFKQYWNRGEPNNAGEEDCAEFSGNGWNDDKCNLAKFWICKKSAASCSRDEEQFLSPAPATPNPPPA
notes: whole, on cells
Consider B4, for which, in experiment [2], the binding result is “binds”.
